Ends that are not written are not given here.
What was measured:
[1] = Solubility of peptide; type: physicochemical; settings: routinely reconstituted in saline
Method: A colony of Lewis rats was maintained at East Carolina University School of Medicine. Animal care and use was approved by the Institutional Animal Care and Use Committee and was performed in accordance with approved institutional guidelines. The synthetic peptide gp69-88 ([…]) (SEQ ID NO. 5) was obtained from Quality Controlled Biologicals, Inc. (Hopkinton, Mass.). The purity of gp69-88 was greater than 98%. […] The OX6 anti-I-A (RT1B) IgG1, the R73 anti-TCRβ IgG1, the OX81 anti-IL-4 IgG1, and the OX18 anti-MHC class I glycoproteins (MHC-I) (RT1A) IgG1 were concentrated by ultrafiltration of B cell hybridoma supernatants through Millipore spiral wound membranes (100 kd exclusion). Hybridomas were obtained from the European Collection of Cell Cultures. The B5 IgM anti-MHC-I (RT1A^a,b,l) mAb was purchased from BD Biosciences. FITC-conjugated goat anti-mouse IgG1 was purchased from Southern Biotechnology (Birmingham, Ala.).

[2] = system: BN-GP T cells; experiment: IFNβ anti-proliferative activity in IL-2 stimulated cultures of BN-GP T cells; type: cell-based, rat; settings: expression supernatants, transient transfection of HEK293 cells
Method: FIG. 1. The IFNβ-NAg his-tagged fusion protein was biologically active and was purified on nickel resins. (A) To assess whether IFNβ-NAg induced class I MHC expression, thymocytes (5×10^6/ml in complete RPMI) were cultured with or without IFNβ-NAg for 2 days and then were stained with B5 (anti-MHC-I), OX18 (anti-MHC-I), R73 (anti-TCRβ), or OX81 (anti-IL4; isotype control) and were analyzed by flow cytometry. (B) To assess IFNβ-mediated anti-proliferative activity, supernatants from two independently derived IFNβ-NAg expression systems as well as supernatants from several control expression systems were added at designated titrations (x-axis) to IL-2 stimulated cultures of BN-GP T cells. (C) To assess the specificity of anti-proliferative activity, baculovirus supernatants containing IFNβ-NAg were added at designated titrations to cultures of rat (R1T, BN-GP, RsL.11T, RsL.11, or Conal.8D9) or mouse (CTLL) T cells. Proliferative assays (B & C) were pulsed with [^3H]thymidine on the second day of a 3-day culture. (D) Shown is a representative SDS-PAGE analysis of purified IFNβ-NAg.
FIG. 2. Structure-function analysis of the cytokine and NAg domains of IFNβ fusion proteins. (A) Expression supernatants containing designated IFNβ fusion proteins (see Table 2) were added to cultures of BN-GP T cells at designated titrations (x-axis). (B) The IFNβ-EK-NAg-6his or IFNβ-EK-6his fusion genes were inserted into the pCEP4 expression vector (Invitrogen). Inserts were verified by DNA sequencing, and the genes were expressed by transient transfection of HEK293 cells. Independently derived expression systems of IFNβ-EK-NAg-6his or IFNβ-EK-6his (3 each) were compared in the BN-GP T cell anti-proliferative assay. (C) Independently purified preparations (2 each) of each IFN-β fusion protein (IFNβ-NAg from HEK293 cells, IFNβ-NAg from baculovirus, and IFN-β from HEK293 cells) were added at designated concentrations to assess anti-proliferative activity. Two independently purified preparations of the same fusion protein were tested to verify the reliability of activity for each type of protein. The x-axis was based on the exponent of the molar concentration. For example, a concentration of 100 nM was represented as Log [10^−7]=Log10) (10^−7M)=−7 and was plotted by the exponent of −7. For these experiments (A-C), BN-GP T cells were cultured in IL-2. (D) The MBP-specific RsL.11 T cell clone and irradiated splenic APC were cultured with designated concentrations of purified IFNβ-NAg or GPMBP in the presence or absence of the OX6 anti-MHC-II mAb. (E) Five preparations of purified IFNβ-NAg and six preparations of purified IFN-β were tested for antigenic activity in cultures of RsL.11 T cells and irradiated splenic APC.
The RsL.11 MBP-specific clone was a stable, IL-2 dependent line derived from Lewis rats sensitized with rat MBP in CFA (Mannie, M. D., and M. S. Norris. 2001. MHC class-II-restricted antigen presentation by myelin basic protein-specific CD4+ T cells causes prolonged desensitization and outgrowth of CD4-responders. Cell Immunol 212:51-62). The RsL.11T clone was a transformed variant of the RsL.11 clone. […]

Row | Molecule | solubility [1] | Biological activity of IFNβ in expression supernatants [2]
1 | YGSLPQKSQRSQDENPVVHF [NAg] | freely soluble | –
2 | ss-IFNβ-6his: Rat IFNβ with 6-histidine sequence, lacking the EK linker (protein, UniProt P70499 22-184, looked up, C-terminal 6His tag) Interferon beta: IDYKQLQFRQSTSIRTCQKLLRQLNGRLNLSYRTDFKIPMEVMHPSQMEKSYTAFAIQVMLQNVFLVFRSNFSSTGWNETIVESLLDELHQQTELLEIILKEKQEERLTWVTSTTTLGLKSYYWRVQRYLKDKKYNSYAWMVVRAEVFRNFSIILRLNRNFQN | – | Weak activity
3 | ss-IFNβ: Rat IFNβ without non-native C-terminal or N-terminal additions (protein, UniProt P70499 22-184, looked up) Interferon beta: IDYKQLQFRQSTSIRTCQKLLRQLNGRLNLSYRTDFKIPMEVMHPSQMEKSYTAFAIQVMLQNVFLVFRSNFSSTGWNETIVESLLDELHQQTELLEIILKEKQEERLTWVTSTTTLGLKSYYWRVQRYLKDKKYNSYAWMVVRAEVFRNFSIILRLNRNFQN | – | Potent activity

From patent publication US10363306B2, “Cytokines and neuroantigens for treatment of immune disorders” (East Carolina University, priority 2009, dated 2019)
